For two substances, Kd results are on record in paper PMC9864772.

What is called pKd is the Kd on a negative log10 scale, so that one unit is a factor of ten. Low readings indicate a large Kd, high ones a small Kd.

pKd: −log10 of the molar value.

This data set has as its system PTB1 (polypyrimidine-tract-binding protein isoform 1). Briefly: filter binding.

EMCV 5'UTR RNA had a pKd of 6.90.

In the case of HCV 5'UTR RNA, the pKd is 6.62.
